Reference: patent US20230235078A1 (University of Texas, published 2023)

B1: DDR1-34 (antibody, V domains shown)
VH: QSVKESGGGLVKPEGSLTLTCKASGFDLSSYYYMCWVRQAPGKGLEWIACIYTSSGATWYANWAKGRFTISKTSSTTVTLQMTALTAADTATYFCARGGWCDFNLWGPGTLVTISS
VL: ELDLTQTPASVSAAVGGTVTISCQSSENLYKDNYLAWYQQKPGQPPKLLIYGASNLASGVPSRFKGSGSGTQFTLTISDLECDDAATYYCAGGYDSVVDFGGGTEVVVK
notes: Rabbit variable domains; Detected with anti-rabbit HRP antibody in the DDR2 ELISA; also called DDR1-34K/DDR1-34H
B2: DDR1-15 (antibody, V domains shown)
VH: SQSLEESGGDLVKPGASLTLTCTASTFSFNSRYWTCWVRQAPGKGLEWIGCINNGDISTYYASWATGRFTISKSSSTTVTLHMTSLTAADTATYFCAKGGNLAGDCYGLWGPGTLVTISS
VL: ELVMTQTPASVEVAVGGTVTIKCQASQTIYSSLAWYQQKPGQPPKLLIYKASTLASGVPSRFKGSGSGTQFTLTISGVQCDDAATYYCQQGSSISNVDKNAFGGGTEVEIK
notes: Rabbit variable domains; Detected with anti-rabbit HRP antibody in the DDR2 ELISA; also called DDR1-15K/DDR1-15H
B3: DDR1-13 (antibody, V domains shown)
VH: EQSVEESGGRLVTPGGSLTLTCTASGFSLNNYAIIWVRQAPGKGLEYIGIFNNGDIYYANWAKGRFTISKTSTTVGLKIVSPTTEDTATYFCARTGYRTGGWLWGPGTLVTISS
VL: ELVMTQTPSPVSAAVGGTVSISCQSSKSVYNNNALSWFQQKPGQPPKVLIYGVSTLDSGVSSRFSGSGYGTEFTLTISDVQCDDAATYYCAGDYSDISDNNFGGGTELEIK
notes: Rabbit variable domains; Detected with anti-rabbit HRP antibody in the DDR2 ELISA; also called DDR1-13K/DDR1-13H
B4: DDR1-29 (antibody, V domains shown)
VH: QSVKSGGGLVKPGASLTLTCKASTFSFNSRYWTCWVRQAPGKGLEWIGCINNGDITTYYTNWATGRFTISKSSSTTVTLQMTSLTAADTATYFCAKGGNLAGDCYGLWGPGTLVTISG
VL: ELVMTQTPASVEAAVGGTVTIKCQASQSISNHLGWYQQKPGQPPKLLIYRASTLESGVSSRFKGSGSGSEFTLTISDLECADAATYYCQSYYIINRSNYANSFGGGTEVEIK
notes: also called DDR1-29K/DDR1-29H
B5: DDR1-28 (antibody, V domains shown)
VH: QSVEESGGRLVTPGTPLTLTCTVSGFSLSSHDMIWVRQAAGKGLEWIGLIISSGNTWYASWAKGRFTISKTSTTVDLKMTSLTTEDTATYFCARDVYSGASPWGPGTLVTISS
VL: ELDLTQTPASVEAAVGGTVTIKCQASQSIDNNDLAWYQQKPGQPPNLLISRTSTLASGVSSRFKGSGSGTEFTLTISDLECADAATYYCQSYCVNTYGYTFGGGTEVVVK
notes: also called DDR1-28K/DDR1-28H
B6: DDR1-22 (antibody, V domains shown)
VH: QSVKESGGRLVTPGGSLTLTCTVSGFSLSDYAMIWVRQAPGKGLEYIGIINNGDIYYATWAKGRFTISETSSTTMGLNIISPTTEDTATYFCARPGYRTGIWLWGPGTLVTISS
VL: ELVLTQTPSPVSAAVGGTVTINCQSSKNIYNNNALSWFQQKPGQPPKLLIYGASTLASGVPSRFKGSGSGTQFTLTISDVQCDDAATYYCAADYSDISDNNFGGGTEVVVK
notes: Rabbit variable domains; Detected with anti-rabbit HRP antibody in the DDR2 ELISA; also called DDR1-22K/DDR1-22H
B7: DDR1-21 (antibody, V domains shown)
VH: QSLEESGGRLVTPGTPLTLTCTVSGFSLSSYGVHWVRQAPGKGLDWIGKIYPSGSIYYSSWAKGRFTISKTSTTVDLKMTSLTTEDTATYFCVRYLTGSSDLHLWGPGTLVTISS
VL: ELVLTQTPSSTSAAVGGTVTISCQSSQSVVDKNWLAWYQQKPGQPPKLLIYEASKLASGVPPRFSGSGSGTQFTLTISGVQCDDAATYYCAGDFESGVSGFGGGTEVEIK
notes: Rabbit variable domains; Detected with anti-rabbit HRP antibody in the DDR2 ELISA; also called DDR1-21K/DDR1-21H
B8: DDR1-1 (antibody, V domains shown)
VH: QSVEESGGRLVTPGTPLTLTCTVSGFSLSRYAMTWVRQAPGKGLEWIGIIGSSGLTYFATWAKGRFTISKTSTTVDLKITSPTTEDTATYFCARGMWYDDSDDYEDYFNLWGPGTLVTISS
VL: ELVLTQTPASVSAAVGGTVTINCQASQNIYSNLAWYQQKPGQPPKLLIYGASNLESGVPSRFKGSGSGTQFTLTISDLECDDAATYYCQSGYYSSSTDIAFGGGTEVVVK
notes: also called DDR1-1K/DDR1-1H

The binders below were run against T1, Human DDR1 extracellular domain (ECD) protein (human, UniProt Q08345 21-417) (assay: ELISA on DDR1, antibody at 10 and 1 µg/ml).
T1 construct: it is treated here as the same molecule; also called recombinant human DDR1 ECD; huDDR1 ECD; not shown: 6xHIS-tag
T1 sequence (Q08345 21-417): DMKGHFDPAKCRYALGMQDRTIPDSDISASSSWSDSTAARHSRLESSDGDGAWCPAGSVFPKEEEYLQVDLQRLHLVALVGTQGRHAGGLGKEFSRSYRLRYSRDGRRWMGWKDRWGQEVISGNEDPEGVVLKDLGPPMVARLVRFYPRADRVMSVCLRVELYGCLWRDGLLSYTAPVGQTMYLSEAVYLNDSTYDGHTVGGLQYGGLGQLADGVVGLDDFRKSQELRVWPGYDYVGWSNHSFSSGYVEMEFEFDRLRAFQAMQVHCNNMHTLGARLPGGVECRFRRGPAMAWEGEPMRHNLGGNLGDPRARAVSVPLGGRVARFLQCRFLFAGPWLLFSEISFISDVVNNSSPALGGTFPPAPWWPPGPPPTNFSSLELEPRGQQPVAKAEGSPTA

Binding result, binds:
B1, B2, B3, B4, B5, B6, B7, B8

What follows are binders tested against T2, human DDR2 ECD (human, UniProt Q16832 22-399) (assay: ELISA, DDR2 ECD coated, antibody at 1 ug/ml, HRP anti-rabbit detection).
T2 construct: extracellular domain; also called DDR2 ECD protein
T2 sequence (looked up): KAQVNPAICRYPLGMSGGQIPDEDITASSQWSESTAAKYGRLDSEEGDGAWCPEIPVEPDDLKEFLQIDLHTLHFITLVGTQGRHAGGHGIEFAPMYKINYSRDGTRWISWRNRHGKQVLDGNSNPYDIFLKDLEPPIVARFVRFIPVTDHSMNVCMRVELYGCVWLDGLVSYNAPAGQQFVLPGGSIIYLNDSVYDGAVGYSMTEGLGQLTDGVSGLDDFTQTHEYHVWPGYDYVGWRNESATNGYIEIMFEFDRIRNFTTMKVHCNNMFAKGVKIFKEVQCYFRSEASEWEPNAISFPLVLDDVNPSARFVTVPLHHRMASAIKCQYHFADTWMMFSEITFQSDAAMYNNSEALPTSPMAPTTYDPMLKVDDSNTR
Description: FIG. 19. Determination of cross-reactivity of a panel of monoclonal antibodies to human DDR2 using ELISA method. DDR1 or DDR2 ECD protein was coated on a high binding plate and each of monoclonal antibodies at 1 ug/ml concentration was added for binding detection with HRP conjugated anti-rabbit antibody (Jackson ImmuneResearch, PA).
To determination cross-reactivity of a panel of anti-human DDR1 monoclonal antibodies to human DDR2 ECD, an ELISA method was used. DDR1 ECD or DDR2 ECD protein was coated on a high binding plate and each of monoclonal antibodies was applied at 1 ug/ml concentration and binding was detected using HRP conjugated anti-rabbit antibody (Jackson ImmuneResearch, PA). Monoclonal antibodies DDR1-3; DDR1-9; DDR1-10; DDR1-14 and DDR1-33 were specific for DDR1 epitopes, while clones DDR1-13; DDR1-15; DDR1-21; DDR1-22 and DDR1-34 appear to recognize epitopes present on both DDR1 and DDR2 ECD.

Binding result, binds:
B1, B2, B3, B6, B7
